Data taken from US5948668.

Columns and labels:
[1] = biological target: recombinant rat procarboxypeptidase B expressed by plasmid pλProCPB (rat)
[2] = biological target: recombinant rat procarboxypeptidase B with the Cys290->Ser mutation, expressed by plasmid pProCPB-C (rat)

Specific Activity (u/mg) of CPB (Hippuryl-L-Arg substrate) after folding of ProCPB and trypsin treatment [1]: 42.9 u/mg
Specific Activity (u/mg) of CPB-C (Hippuryl-L-Arg substrate) after folding of ProCPB-C and trypsin treatment [2]: 20.9 u/mg
Substance: trypsin (enzyme)
